Consider 32 variants from the RNAGym collection of RNA variant scans (doi:10.7554/elife.80360).

The chains are these.
B1: HDV Ribozyme (parent)
chain: GGCCGGCAUGGUCCCAGCCUCCUCGCUGGCGCCGGCUGGGCAACAUUCCGAGGGGACCGUCCCCUCGGUAAUGGCGAAUGGGACCCA

The variants in the data set derive from B1. As to the kind of experiment: self-cleavage, relative activity (ratio to wild type); higher = more cleavage; co-transcriptional.
As to AGCCGGCAUGGUCCCAGCAUCCUCGCUGGCGCCGGCUGGGCAACAUUCCGAGGGGACCGUCCCCUCGGUAAUGGCGAAUGGGACCCA [G1A C19A], the self-cleavage is 0.0744.

AGCCGGCAUGGUCCCAGCUUCCUCGCUGGCGCCGGCUGGGCAACAUUCCGAGGGGACCGUCCCCUCGGUAAUGGCGAAUGGGACCCA [G1A C19U]: the self-cleavage is 0.101. On to AGCCGGCAUGGUCCCAGCCUCCUCGCUGGCGCCGGCUGGGCAACAUUCCGAGGGGACCGUCGCCUCGGUAAUGGCGAAUGGGACCCA [G1A C62G], for which the self-cleavage was determined as 0.0519. Turning to AGCCGGCAUGGUCCCAGCCUCCUCGCUGGCGCCGGCUGGGCAACAUUCCGAGGGGACCGUCACCUCGGUAAUGGCGAAUGGGACCCA [G1A C62A], the self-cleavage came to 0.0791. For AGCCGGCAUGGUCCCAGCCUCCUCGCUGGCGCCGGCUGGGCAACGUUCCGAGGGGACCGUCCCCUCGGUAAUGGCGAAUGGGACCCA [G1A A45G] the value was 0.185; for AGCCGGCAUGGUCCCAGCCUCCUCGCUGGCGCCGGCUGGGCAACCUUCCGAGGGGACCGUCCCCUCGGUAAUGGCGAAUGGGACCCA [G1A A45C], 0.268; for AGCCGGCAUGGUCCCAGCCUCCUCGCUGGCGCCGGCUGGGCAACAUUCCGAGGGGACCGUACCCUCGGUAAUGGCGAAUGGGACCCA [G1A C61A], 0.145. Then AGCCGGCAUGGUCCCAGCCUCCUCGCUGGCGCCGGCUGGGCAACAUUCCGAGGGGACCGUUCCCUCGGUAAUGGCGAAUGGGACCCA [G1A C61U], with 0.26. Regarding AGCCGGCAUGGUCCCAGCCUCCUCGCUGGCGCCGGCUGGGCAACAUUCCGAGGGGACCGUGCCCUCGGUAAUGGCGAAUGGGACCCA [G1A C61G], the self-cleavage was found to be 0.0831. Turning to AGCCGGCAUGGUCCCAGCCUCCUCGCUGGCGCCGGCUGGGCGACAUUCCGAGGGGACCGUCCCCUCGGUAAUGGCGAAUGGGACCCA [G1A A42G], the self-cleavage turned out to be 0.115. For the variant AGCCGGCAUGGUCCCAGCCUCAUCGCUGGCGCCGGCUGGGCAACAUUCCGAGGGGACCGUCCCCUCGGUAAUGGCGAAUGGGACCCA [G1A C22A], the self-cleavage was determined as 0.0831. For the variant AGCCGGCAUGGUCCCAGCCUCUUCGCUGGCGCCGGCUGGGCAACAUUCCGAGGGGACCGUCCCCUCGGUAAUGGCGAAUGGGACCCA [G1A C22U], the self-cleavage was found to be 0.0779. On to AGCCGGCAUGGUCCCAGCCUCCUCGCUGGCGCCGGCUGGGCAACAUUCCGAGGGGACCGUCCCCUCGGUAGUGGCGAAUGGGACCCA [G1A A71G], for which the self-cleavage was found to be 0.104. Consider AGCCGGCAUGGUCCCAGCCUCCUCGCUGGCGCCGGCUGGGCAACAUUCCGGGGGGACCGUCCCCUCGGUAAUGGCGAAUGGGACCCA [G1A A51G], for which the self-cleavage came out at 0.

In the case of AGCCGGCAUGGUCCCAGCCUCCUCGCUGGCGCCGGCUGGGCAACAUUCCGAGGGGACCGUCCCCUCGGUAAUGGCGUAUGGGACCCA [G1A A77U], the self-cleavage worked out at 0. For the variant AGCCGGCAUGGUCCCAGCCUCCUCGCUGGCGCCGGCUGGGCAACAUUCCGAGGGGACCGUCCCCUCGGUAAUGGCGGAUGGGACCCA [G1A A77G], the self-cleavage is 0.237. On to AGCCGGCAUGGUCCCAGCCUCCUCGCUGGCGCCGGCUGGGCAACAUUCCGAGGGGACCGUCCCCUCGGUAAUGGCGAGUGGGACCCA [G1A A78G], for which the self-cleavage was 0. Regarding AGCCGGCAUGGUCCCAGCCUCCUCGCUGGCGCCGGCUGGGCAACAUUCCGAGGGGACCGUCCCCUCGGUAAUGGCGAUUGGGACCCA [G1A A78U], the self-cleavage came out at 0.0449. For AGCCGGCAUGGUCCCAGCCUCCUCGCUGGCGCCGGCUGGGAAACAUUCCGAGGGGACCGUCCCCUCGGUAAUGGCGAAUGGGACCCA [G1A C41A] the value was 0.222; for AGCCGGCAUGGUCCCAGCCUCCUCGCUGGCGCCGGCUGGGUAACAUUCCGAGGGGACCGUCCCCUCGGUAAUGGCGAAUGGGACCCA [G1A C41U], 0.237. For AGCCGGCAUGGUCCCAGCCUCCUCGCUGGCGCUGGCUGGGCAACAUUCCGAGGGGACCGUCCCCUCGGUAAUGGCGAAUGGGACCCA [G1A C33U] the value was 0.0594.

Turning to AGCCGGCAUGGUCCCAGCCUCCUCGCUGGCGCCGGCUGGGCAACAUUCCGAGGGGAGCGUCCCCUCGGUAAUGGCGAAUGGGACCCA [G1A C57G], the self-cleavage was found to be 0.

Regarding AGCCGGCAUGGUCCCAGCCUCCUCGCUGGCGCCGGCUGGGCAACAUUCCGAGGGGAACGUCCCCUCGGUAAUGGCGAAUGGGACCCA [G1A C57A], the self-cleavage turned out to be 0.208. In the case of AGCCGGCAUGGUCUCAGCCUCCUCGCUGGCGCCGGCUGGGCAACAUUCCGAGGGGACCGUCCCCUCGGUAAUGGCGAAUGGGACCCA [G1A C14U], the self-cleavage came to 0.415.

As for AGCCGGCAUGGUCACAGCCUCCUCGCUGGCGCCGGCUGGGCAACAUUCCGAGGGGACCGUCCCCUCGGUAAUGGCGAAUGGGACCCA [G1A C14A], the self-cleavage was determined as 0.0573. As for AGCCGGCAUGGUCCCAGCCUCCUCGCUGGCGCCGGGUGGGCAACAUUCCGAGGGGACCGUCCCCUCGGUAAUGGCGAAUGGGACCCA [G1A C36G], the self-cleavage was 0.119. For the variant AGCCGGCAUGGUCCCAGCCUCCUCGCUGGCGCCGGAUGGGCAACAUUCCGAGGGGACCGUCCCCUCGGUAAUGGCGAAUGGGACCCA [G1A C36A], the self-cleavage turned out to be 0.154.

For the variant AGCCGGCAUGGUCCCAGCCUACUCGCUGGCGCCGGCUGGGCAACAUUCCGAGGGGACCGUCCCCUCGGUAAUGGCGAAUGGGACCCA [G1A C21A], the self-cleavage is 0.104. Consider AGCCGGCAUGGUCCCAGCCUUCUCGCUGGCGCCGGCUGGGCAACAUUCCGAGGGGACCGUCCCCUCGGUAAUGGCGAAUGGGACCCA [G1A C21U], for which the self-cleavage came to 0.121. As for AGCCGGCAUGGUCCCAGCCUCCUCGCUGGCGCCGGCUGGGCAACAUUCCGAGGGGACCGUCCCCUCGGUAAUGGCGAAUGGGACCCG [G1A A87G], the self-cleavage amounted to 0.141. For AGCCGGCCUGGUCCCAGCCUCCUCGCUGGCGCCGGCUGGGCAACAUUCCGAGGGGACCGUCCCCUCGGUAAUGGCGAAUGGGACCCA [G1A A8C] the value was 0; for AGCAGGCAUGGUCCCAGCCUCCUCGCUGGCGCCGGCUGGGCAACAUUCCGAGGGGACCGUCCCCUCGGUAAUGGCGAAUGGGACCCA [G1A C4A], 0.166.
